Here are results for one molecule from paper PMC3643934, “Identification and Characterization of the Direct Interaction between Methotrexate (MTX) and High-Mobility Group Box 1 (HMGB1) Protein” (PLoS ONE, 2013).

Common to all, as to settings: both partners purified
Assay [1] concerns the target T1, extracellular domain of RAGE (M1-A344) (UniProt Q15109 23-344).
T1 construct: signal peptide in the construct; receptor for advanced glycation end products (RAGE), extracellular domain, M1-A344 as printed; The results call it 'chimeric RAGE' without saying what it is fused to; the R&D Systems product with these limits is probably the human RAGE Fc chimera (surmise), in which the signal peptide would be removed on secretion; also called chimeric RAGE; receptor for advanced …
Nature of the assay: SPR; same set-up, Bj 0.31-10 µM injected with 1 mM MTX; equilibrium responses (Req), Lineweaver-Burk plot, noncompetitive inhibition model. On the technique in general: SPR reads the build-up and loss of mass on a sensor chip optically.

Assay [2] addresses T1, extracellular domain of RAGE (M1-A344). Nature of the assay: SPR; same set-up, no MTX; equilibrium responses (Req), concentration-response curve and Lineweaver-Burk plot.
The target is the same in assay [3]. Nature of the assay: SPR; Biacore 3000; RAGE immobilised on a CM5 chip by amine coupling up to 5000 RU; Bj 0.31-10 µM injected at 30 µl/min, 120 s association and 120 s dissociation; PBS, 25°C; no MTX; kinetic analysis by global fitting.

T1 sequence (Q15109 23-344): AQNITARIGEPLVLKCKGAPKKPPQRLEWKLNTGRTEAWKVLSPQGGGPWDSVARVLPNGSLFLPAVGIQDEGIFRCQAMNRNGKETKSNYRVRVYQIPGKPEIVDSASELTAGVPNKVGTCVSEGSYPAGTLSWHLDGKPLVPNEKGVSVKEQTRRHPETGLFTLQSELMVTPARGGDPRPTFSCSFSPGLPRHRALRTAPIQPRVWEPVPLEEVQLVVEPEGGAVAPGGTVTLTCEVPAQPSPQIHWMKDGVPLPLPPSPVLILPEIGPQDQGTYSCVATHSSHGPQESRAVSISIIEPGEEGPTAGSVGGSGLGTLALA

B1: Bj protein (amino acid residues F88-K181 of HMGB1) (domain or fragment)
chain: FKDPNAPKRPPSAFFLFCSEYRPKIKGEHPGLSIGDVAKKLGEMWNNTAADDKQPYEKKAAKLKEKYEKDIAAYRAKGKPDAAKKGVVKAEKSK
modifications: Paper numbering starts at G1 (initiator Met removed), so entry number = paper number + 1 (F88-K181 -> 89-182; D157 -> D158; Y161 -> Y162). N-terminal 6xHis tag from pTrcHis omitted; expressed in E. …
In the case of B1, the Kd (in general, the constant that tells how readily two partners part at equilibrium) is 1390 nM in assay [1], 1350 nM in assay [2] and 3710 ± 1680 nM in assay [3]. Also, the koff – broadly, the first-order rate constant of dissociation – in assay [3] amounted to 0.00052 ± 0.25 s⁻¹. Besides, in assay [3], the kon (commonly a measure of how fast the partners come together) amounted to 150 ± 0.01 M⁻¹ s⁻¹.
